The record followed here is paper PMC3112443.

Series [1] in a line: supernatant titer on PFVL luciferase indicator cells. To be noted: glycan lost; control: wild type.
A short description of series [2]: non-reducing Western blot. The following applies: glycan lost; control: wild type. In general terms: In western blotting, separated proteins are transferred to a membrane and probed.

B1: human tetherin (HuTHN; BST-2, CD317, HM1.24): N65/92A (protein)
parent chain: MASTSYDYCRVPMEDGDKRCKLLLGIGILVLLIIVILGVPLIIFTIKANSEACRDGLRAVMECRNVTHLLQQELTEAQKGFQDVEAQAATCNHTVMALMASLDAEKAQGQKKVEELEGEITTLNHKLQDASAEVERLRRENQVLSVRIADKKYYPSSQDSSSAAAPQLLIVLLGLSALLQ
Consider B1, for which, in series [1], the “other: inhibition of virus release” value was “no change”. Further, the oligomerisation result in series [2] is recorded as “no change”.
